Results as given in article PMC6393287, “The RRM of the kRNA-editing protein TbRGG2 uses multiple surfaces to bind and remodel RNA”.

Experiments:
[1] = biological target: TbRGG2 RRM-Cterm (residues 203–320) (T. brucei); test: SEC; RRM-Cterm at 16 mg/ml mixed with equimolar U20 RNA, Superdex 75; 20 mM Tris-HCl pH 7.5, 150 mM NaCl, 5% glycerol, 1 mM DTT
[2] = biological target: TbRGG2 RRM-Cterm (residues 203–320) (T. brucei); test: SEC; protein alone at 10 mg/ml on Superdex 75; 20 mM Tris-HCl pH 7.5, 150 mM NaCl, 5% glycerol, 1 mM DTT; elution volume compared with protein standards
TbRGG2 RRM-Cterm W215A = TbRGG2 RRM-Cterm W215A (Trypanosoma brucei, UniProt Q389P7 193-310, W205A); test: FP; FP: 20 mM Tris-HCl pH 7.5, 5% glycerol, 50 mM NaCl (a further '20 mM' printed without component), 1 nM labelled RNA, 25 C; conditions: protein: recombinant; tags: His6 cleaved (thrombin); chain copies: 2; label: 5'-fluorescein (FP)
TbRGG2 RRM W215A = TbRGG2 RRM W215A (Trypanosoma brucei, UniProt Q389P7 193-259, W205A); test: as above; conditions: protein: recombinant; tags: His6 cleaved (thrombin); label: 5'-fluorescein (FP)

Molecule | stoichiometry N [1] | stoichiometry N [2] | binding result (TbRGG2 RRM-Cterm W215A) | binding result (TbRGG2 RRM W215A)
TbRGG2 RRM-Cterm (residues 203–320) (domain or fragment) | 2 | 2 | – | –
UUUUUUUUUUUUUUUUUUUU (ssRNA) [U20] | – | – | no binding | no binding
